T1: human FcγR IIb (CD32b) (human, UniProt P31994 43-217, limits assumed)
T1 sequence (looked up): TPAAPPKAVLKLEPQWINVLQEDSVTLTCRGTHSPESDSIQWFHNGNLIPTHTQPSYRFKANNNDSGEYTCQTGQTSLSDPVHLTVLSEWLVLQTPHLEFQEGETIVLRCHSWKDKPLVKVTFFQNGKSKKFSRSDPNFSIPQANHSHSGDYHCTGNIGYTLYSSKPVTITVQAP

T2: human FcγR IIa (CD32a) (human, UniProt P12318 34-217, limits assumed)
T2 sequence (looked up): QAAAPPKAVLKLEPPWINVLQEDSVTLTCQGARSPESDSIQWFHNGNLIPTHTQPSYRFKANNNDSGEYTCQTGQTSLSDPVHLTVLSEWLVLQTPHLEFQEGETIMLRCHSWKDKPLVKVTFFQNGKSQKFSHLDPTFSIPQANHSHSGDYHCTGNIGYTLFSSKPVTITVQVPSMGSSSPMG

T3: cynomolgus FcγR IIa (CD32a) (cynomolgus, UniProt A0A140HDN0 28-215)
T3 sequence: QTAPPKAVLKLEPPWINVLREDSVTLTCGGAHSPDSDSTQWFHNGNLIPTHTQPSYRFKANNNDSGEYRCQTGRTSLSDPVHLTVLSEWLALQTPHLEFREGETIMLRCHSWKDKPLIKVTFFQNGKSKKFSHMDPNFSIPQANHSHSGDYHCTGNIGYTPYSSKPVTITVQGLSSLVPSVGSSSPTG

T4: cynomolgus FcγR IIb (CD32b) (cynomolgus, UniProt A0A140HDP4 43-217)
T4 sequence: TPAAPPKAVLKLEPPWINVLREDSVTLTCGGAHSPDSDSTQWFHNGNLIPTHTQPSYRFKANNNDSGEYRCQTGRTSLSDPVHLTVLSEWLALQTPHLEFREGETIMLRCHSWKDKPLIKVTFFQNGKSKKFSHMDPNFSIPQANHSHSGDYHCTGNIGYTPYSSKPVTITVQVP

T5: human LTα1β2 on phorbol myristate acetate activated II-23 cells (human, UniProt P01374 35-205; Q06643 1-244)
T5 construct: whole, on cells
T5 sequence (looked up) 1: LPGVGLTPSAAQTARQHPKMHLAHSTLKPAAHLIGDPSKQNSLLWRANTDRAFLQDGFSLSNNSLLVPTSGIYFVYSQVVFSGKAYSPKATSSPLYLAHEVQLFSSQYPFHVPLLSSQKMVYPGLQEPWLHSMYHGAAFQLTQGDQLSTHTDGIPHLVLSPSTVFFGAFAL
T5 sequence (looked up) 2: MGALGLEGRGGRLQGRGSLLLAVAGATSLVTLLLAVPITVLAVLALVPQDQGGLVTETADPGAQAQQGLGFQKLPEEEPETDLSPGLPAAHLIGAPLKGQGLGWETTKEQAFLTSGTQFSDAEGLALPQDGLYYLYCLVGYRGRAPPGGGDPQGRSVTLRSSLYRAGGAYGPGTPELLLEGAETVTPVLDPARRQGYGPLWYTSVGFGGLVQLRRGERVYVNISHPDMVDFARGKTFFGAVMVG

T6: LTα1β2 (coated on ELISA plates) (Homo sapiens (Human), UniProt P01374 35-205; Q06643 49-244, Heterotrimer of one alpha and two beta chains, as the name says.)
T6 construct: Heterotrimer of one alpha and two beta chains by its name; also called LTa1β2; copies: 1 + 1
T6 sequence (alpha): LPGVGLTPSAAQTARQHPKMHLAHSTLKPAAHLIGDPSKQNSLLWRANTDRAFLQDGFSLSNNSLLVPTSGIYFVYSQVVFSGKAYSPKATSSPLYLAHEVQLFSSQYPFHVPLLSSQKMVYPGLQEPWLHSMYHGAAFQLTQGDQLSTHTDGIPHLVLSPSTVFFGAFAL
T6 sequence (beta): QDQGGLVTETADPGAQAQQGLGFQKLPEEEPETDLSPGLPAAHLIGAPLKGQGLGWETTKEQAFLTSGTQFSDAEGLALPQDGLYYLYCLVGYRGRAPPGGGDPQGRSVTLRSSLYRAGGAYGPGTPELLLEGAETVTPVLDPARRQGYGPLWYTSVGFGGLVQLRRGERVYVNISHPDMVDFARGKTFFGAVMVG


Columns and labels:
[1] = target: cynomolgus FcγR III (CD16a) (cynomolgus, UniProt Q8SPW2 17-208, limits assumed); experiment: Alphascreen assay, cynomolgus FcγR CD16a
[2] = target: T7, human FcRIII-GST (CD16a, V158) (human, UniProt P08637 17-208, limits assumed); experiment: Alphascreen assay, human FcγR CD16a
T7 construct: also called human FcγRIII; FcγRIII (CD16a); not shown: GST tag
Description: (§1) The ability of scFc antibodies comprising GGGGS (“1×-G4S”) or (GGGS)3 (“3×-G4S”) linkers to engage Fcγ receptors was also evaluated in an Amplified Luminescent Proximity Homogeneous Assay (Alphascreen®; Perkin Elmer). Laser excitation (680 nm) of a donor bead generates singlet oxygen which, if in close proximity to an acceptor bead, initiates a cascase of events ultimately leading to fluorescence emission at 520-620 nm. Donor and acceptor beads decorated with ligand and receptor proteins, respectively, are brought into desired proximity only when the receptor and ligand become functionally engaged.
(§2) The Alphascreen® assay was performed in a competitive format in which serial dilutions of test antibodies (WT IgG1 or scFc) were incubated with human FcRIII-GST (CD16a, V158) and anti-GST acceptor beads overnight at 4° C. in a 96-well white plate. Streptavidin donor beads and biotinylated wild-type IgG1 were also incubated overnight at 4° C. in a separate tube and then added to the assay plate the next day. After a two-hour incubation at room temperature with gentle shaking the plates were read in an Envision® plate reader (Perkin Elmer).

human FcγR IIb (CD32b) = target: T1, human FcγR IIb (CD32b); experiment: Alphascreen assay, human FcγR CD32b
human FcγR IIa (CD32a) = target: T2, human FcγR IIa (CD32a); experiment: Alphascreen assay, human FcγR CD32a (R)
[3] = target: T3, cynomolgus FcγR IIa (CD32a); experiment: Alphascreen assay, cynomolgus FcγR CD32a (R)
[4] = target: T4, cynomolgus FcγR IIb (CD32b); experiment: Alphascreen assay, cynomolgus FcγR CD32b
[5] = target: T7, human FcRIII-GST (CD16a, V158); experiment: Alphascreen competition assay, huCD16a V158-GST on anti-GST acceptor beads; competitor: biotinylated wild-type IgG1 on streptavidin donor beads; set-up: IC50 (read off the curve): unit not given here
Description: as §1, §2

[6] = target: T7, human FcRIII-GST (CD16a, V158); experiment: Alphascreen, competitive format, competitor biotinylated wild-type IgG1
Description: as §1, §2

[7] = target: T7, human FcRIII-GST (CD16a, V158); experiment: Alphascreen
Description: as §1, §2

[8] = target: T5, human LTα1β2 on phorbol myristate …; experiment: FACS direct binding on PMA-activated II-23 cells, mean fluorescence (MFI)
Description: The binding affinity of the monomeric LTβR:scFc was also evaluated by FACS analysis (FIG. 59B). FACS was done on II-23 cells according to the methods of Eldredge et al. (Eldredge, Berkowitz et al. 2006). FACS binding assays using flow cytometry were done according to the method previously described (Force, Walter et al. 1995). Briefly, in direct binding assays human LTα1β2 was detected on phorbol myristate acetate activated II-23 cells (American Type Culture Collection (ATCC) Manassas, Va.) in FACS buffer with varied concentrations of either the LTβRIgG or biotinylated LTβRIgG (bLTβRIgG). Cells were incubated on ice for 1-2 h then washed with PBS and centrifuged. The appropriate steptavidin phycoerythrin or anti-hFc phycoerythrin labeled secondary (Molecular Probes, Eugene, Oreg.) in FACS buffer was added and incubated with the cells for an additional 1 h and washed again. The fluorescent staining of the cellular bound LTβRIgG on the II-23 cells was quantified by determining the mean channel fluorescence by FACS. Both the FACS and ELISA show the LTβRscFc has a reduced binding affinity compared with LTβRIgG.

[9] = target: T6, LTα1β2 (coated on ELISA plates); experiment: ELISA on plates coated with 5 ug/ml LTα1β2, detected with anti-human HRP secondary antibody. The value is parameter C (midpoint) of the four-parameter fit y = ((A-D)/(1+(x/C)^B))+D printed under the plot. The unit is taken from the x axis.
Description: FIG. 59A depicts the results of an ELISA evaluating the binding affinity of the monomeric LTβR:scFc to LTα1β2. ELISA plates were coated overnight at 4° C. with 5 ug/ml LTα1β2 in PBS. Plates were then blocked with 1% Casein in 10 mM PBS, pH 7.0, then washed with 10 mM PBS, pH 7.0, 0.1% Tween 20 (wash buffer) three times. LTβR:IgG or LTBβ:scFc serially diluted into 10 mM PBS, 362 mM NaCl, 0.055 Tween-20, 0.1% Casein, 5% FBS pH 7.0 (assay diluent) and incubated for 1 h, then washed with wash buffer. To each well was added Donkey anti-human heavy and light specific HRP (Jackson Labs) conjugated secondary antibody diluted 1:5000 in assay diluents for 60 min then washed with PBS. The HRP was developed using tetramethybenzidine and hydrogen peroxide in 100 mM NaAcetate pH 4.0 after several minutes, the assay was stopped by the addition of 100 uL of 1N sulfuric acid and sample absorbance read at 450 nm.

Row | Binder | EC50 [1] | EC50 [2] | EC50 (human FcγR IIb (CD32b)) | EC50 (human FcγR IIa (CD32a)) | EC50 [3] | EC50 [4] | EC50 [5] | fold lower affinity against fully glycosylated WT human IgG1 [6] | fold weaker binding against WT IgG1 [7] | IC50 (read off the curve) [5] | EC50 (read off the curve) [8] | EC50 [9]
1 | Hu5C8, conventional human IgG1 anti-CD40L antibody (antibody, N-glycan at EU N297; biotinylated (sites not given) in the CD40L ELISA, Human IgG1, fully glycosylated, bivalent; Biotinylated in the CD40L ELISA; also called WT 5c8 hIgG1; WT 5C8 hIgG1) heavy: not shown light: DIVLTQSPATLSVSPGERATISCRASQRVSSSTYSYMHWYQQKPGQPPKLLIKYASNLESGVPARFSGSGSGTDFTLTISSVEPEDFATYYCQHSWEIPPTFGGGTKLEIKRTVAAPSVFIFPPSDEQLKSGTASVVCLLNNFYPREAKVQWKVDNALQSGNSQESVTEQDSKDSTYSLSSTLTLSKADYEKHKVYACEVTHQGLSSPVTKSFNRGEC | 37 nM | 22 nM | 292 nM | 511 nM | 359 nM | 52 nM | 12 nM | – | – | – | – | –
2 | 3×G4S-linked hemiglycosylated 5C8 scFc IgG1 antibody (pASK043) (antibody, One heavy scFc chain and one light chain (monovalent); also called monovalent 3×G4S-linked hemiglycosylated scFc; hemi-glycosylated 3×-G4S linked scFc) heavy: not shown light: DIVLTQSPATLSVSPGERATISCRASQRVSSSTYSYMHWYQQKPGQPPKLLIKYASNLESGVPARFSGSGSGTDFTLTISSVEPEDFATYYCQHSWEIPPTFGGGTKLEIKRTVAAPSVFIFPPSDEQLKSGTASVVCLLNNFYPREAKVQWKVDNALQSGNSQESVTEQDSKDSTYSLSSTLTLSKADYEKHKVYACEVTHQGLSSPVTKSFNRGEC | 89 nM | 59 nM | 552 nM | 949 nM | 221 nM | 72 nM | 77 nM | ~4 fold | – | – | – | –
3 | 1×G4S-linked hemiglycosylated 5C8 scFc IgG1 antibody (pEAG2066) (antibody, plasmid not given; also called hemi-glycosylated 1×-G4S linked scFc; 1×G4S linked scFc) heavy: not shown light: DIVLTQSPATLSVSPGERATISCRASQRVSSSTYSYMHWYQQKPGQPPKLLIKYASNLESGVPARFSGSGSGTDFTLTISSVEPEDFATYYCQHSWEIPPTFGGGTKLEIKRTVAAPSVFIFPPSDEQLKSGTASVVCLLNNFYPREAKVQWKVDNALQSGNSQESVTEQDSKDSTYSLSSTLTLSKADYEKHKVYACEVTHQGLSSPVTKSFNRGEC | – | – | – | – | – | – | 689 nM | ~57 fold | ~60 fold | ~70 | – | –
4 | 3×G4S-linked fully glycosylated 5C8 scFc IgG1 antibody (ASK048) (antibody, also called fully glycosylated 3×G4S linked scFc) heavy: not shown light: DIVLTQSPATLSVSPGERATISCRASQRVSSSTYSYMHWYQQKPGQPPKLLIKYASNLESGVPARFSGSGSGTDFTLTISSVEPEDFATYYCQHSWEIPPTFGGGTKLEIKRTVAAPSVFIFPPSDEQLKSGTASVVCLLNNFYPREAKVQWKVDNALQSGNSQESVTEQDSKDSTYSLSSTLTLSKADYEKHKVYACEVTHQGLSSPVTKSFNRGEC | 32 nM | 18 nM | 183 nM | 304 nM | 206 nM | 17 nM | – | – | – | – | – | –
5 | LTβR:IgG, dimeric (Fc fusion, not shown: a dimerising Fc or GST; small tags and cut ends, Dimeric through its Fc, which is left out. A biotinylated form (bLTβRIgG) was also used in FACS., Conventional dimeric receptor-Fc fusion used as the comparator; also called bLTβRIgG (biotinylated)) QAVPPYASENQTCRDQEKEYYEPQHRICCSRCPPGTYVSAKCSRIRDTVCATCAENSYNEHWNYLTICQLCRPCDPVMGLEEIAPCTSKRKTQCRCQPGMFCAAWALECTHCELLSDCPPGTEAELKDEVGKGNNHCVPCKAGHFQNTSSPSARCQPHTRCENQGLVEAAPGTAQSDTTCKNPLEPLPPEMSGTMLM | – | – | – | – | – | – | – | – | – | – | ~0.1 µg/mL | 0.028 µg/mL
